Measured values taken from the DeepSol protein solubility set.

test: soluble on expression in E. coli; label from the status in PepcDB or PDB records

| Sequence | soluble on expression in E. coli |
| --- | --- |
| MGLHVPADQHDLDFTRLGPWFSVMVNGEGQRYKVSGQVTHVKPPQSVGFTWGWHDDDDRRGAESHVMFIVEPCAKGARLILDHRELGDDEMSLRHEEGWTSSLRKLAAELEHHHHHH | not soluble |
| MGLIVDDDNDGEVLIPPPNFSMVEDEIYRSGFPELENFGFLSTLNLRSIIYLCPEPYPEDNLKSLASNNIKLFQFGIEGKTDPPTPMPKDTVLSALRVLVDVRNHPILIHCKRGKHRTGCLVGCLRKVQNWCLSSVLEEYQKCAGLKWRQRDLRFIEDFDVLRLKQCLYSIIYQYNGYGLKRRKLLYQEENVVQEQQKPQATKG | soluble |
| MGLSCTDDWRVIDLPGSFITVTNLNQFTLNGDGFAARMEMTLVAPDHGGDSDLIAMGELIEQAISGVRSLGGAIESIELNQQVTPPHGGKAPASTMTFTLFYDMENEE | not soluble |
| MGLTVEAADEKGLTLRLPYSQAIIGNPESGVVHGGAITTLMDTTCGISTVCVLPDFEICPTLDLRIDYMHPAEPHKDVYGFAECYRVTPNVIFTRGFAYQDDPGQPIAHVVGAFMRMGLEHHHHHH | not soluble |
| MGMLVEGVWKDVWYDTKETKGHFKRSASQFRNWVTVDGAVGPSGEGGFEAEKDRYHLYVSFACPWAHRTLIFRKLKKLEDLISVSVVDPLMLENGWEFKPEGERTPGATQDHLFGSSTLWQVYTKADPTYSGRVTVPVLWDKKRGTIVSNESAEIIRMFNVAFNDLTGSDADYYPKALRAEIDALNDVIYDTVNNGVYKAGFATTQDAYQQNAVKVFETLDMLEDRLKDRRFLFGSEQTEADWRLFTTLVRFDPVYVGHFKCNIRRIHDYPHLTGYLRDLYQTPGVPDTVDMRHIKEHYYRSHRTINPTGIVPIGPELDLTMAHGREALS | soluble |
| MGMPEEALKIYQELLEIEKELGNEREIALTLANIAVVKDELGEADEAIKLMSEAKDIFEKINDTKNYHIALIDLAHFYYELGEYEKAMQIIEEVLRNPLDDEIEVHGRLVESEIHSALENYKKAALSLRNALLRSGDDEYLFETAFEAVLEFIEELYNEEKLEHHHHHH | not soluble |
| MGMTIVEKILAKASGKKEVSPGDIVMANIDVAMVHDITGPLTVNTLKEYGIEKVWNPEKIVILFDHQVPADSIKAAENHILMRKFVKEQGIKYFYDIREGVCHQVLPEKGHVAPGEVVVGADSHTCTHGAFGAFATGIGSTDMAHVFATGKLWFKVPET | not soluble |
| MGNTLGLAPMGTLPRRSPRREEPLPNPGSFDELHRLCKDVFPAQMEGVKLVVNKVLSSHFQVAHTIHMSALGLPGYHLHAAYAGDWQLSPTEVFPTVVGDMDSSGSLNAQVLLLLAERLRAKAVFQTQQAKFLTWQFDGEYRGDDYTATLTLGNPDLIGESVIMVAHFLQSLTHRLVLGGELVYHRRPGEEGAILTLAGKYSAVHWVATLNVGSGGAHASYYHRANEQVQVGVEFEANTRLQDTTFSFGYHLTLPQANMVFRGLVDSNWCVGAVLEKKMPPLPVTLALGAFLNHWRNRFHCGFSITVG | soluble |
| MGNYMTYIVGLTGGIGSGKTTIANLFTDLGVPLVDADVVAREVVAKDSPLLSKIVEHFGAQILTEQGELNRAALRERVFNHDEDKLWLNNLLHPAIRERMKQKLAEQTAPYTLFVVPLLIENKLTALCDRILVVDVSPQTQLARSAQRDNNNFEQIQRIMNSQVSQQERLKWADDVINNDAELAQNLPHLQQKVLELHQFYLQQAENKNALEHHHHHH | soluble |
| MGPHFTLLLAALANCLCPGRPCIKCDQFVTDALKTFENTYLNDHLPHDIHKNVMRMVNHEVSSFGVVTSAEDSYLGAVDENTLEQATWSFLKDLKRITDSDLKGELFIKELLWMLRHQKDIFNNLARQFQKEVLCPNKCGVMSQTLIWCLKCEKQLHICRK | not soluble |
| MGPLLVWHRGDLRLHDHPALLEALARGPVVGLVVLDPNNLKTTPRRRAWFLENVRALREAYRARGGALWVLEGLPWEKVPEAARRLKAKAVYALTSHTPYGRYRDGRVREALPVPLHLLPAPHLLPPDLPRAYRVYTPFSRLYRGAAPPLPPPEALPKGPEEGEIPREDPGLPLPEPGEEAALAGLRAFLEAKLPRYAEERDRLDGEGGSRLSPYFALGVLSPRLAAWEAERRGGEGARKWVAELLWRDFSYHLLYHFPWMAERPLDPRFQAFPWQEDEALFQAWYEGKTGVPLVDAAMRELHATGFLSNRARMNAAQFAVKHLLLPWKRCEEAFRHLLLDGDRAVNLQGWQWAGGLGVDAAPYFRVFNPVLQGERHDPEGRWLKRWAPEYPSYAPKDPVVDLEEARRRYLRLARDLARG | soluble |
| MGPRFQPDDTLYKRRNTLKVEYVPDDIVGRDNEIEEYEAALQPIINGEYPDNIFIYGKTGVGKTAVTNFLLNELRESADHFEVDLTVISLNCDGLSTSYQAAISLVNNLRGHENHIAETGHPQSKVYRLLWNELNKLSGSVIIVLDEIDHITDDTFLYQITRADNNGYIDNIQLGVIGISNDSTFREQLDAKVQSSLCETEISFPPYGTEELQKVLEQRAEIAFHESALEDGVIPLCAALGRQDGGDARRAITLLRKAGDLARTENANSVTTDHVERAQEKLEAQQSMDIMRDLTEHEQLTLYALTTLAAEGETPARSRIVYQRYKELCEFQGREPRTARRMRSFLSDFEILNLTLSEMEHRGQDGGTYRQHELNRDIATVVDALQTIIGEFGAHQSIIEYLPDSGEEFATM | not soluble |
| MGQGQTKSEQKLSEQTLRKFYDAQLENQLIAENLKWAQQRAVDLLKVRDQLQWEVLAAATTTVVLLAAGSIYKRKDVIIPIVPLIMGCGYQYDVAHGDNRQLVRETAVELLKTPEELHMLPAITLRDIDEFRDSHKL | not soluble |
| MGQIIVSMYLSLDGVMEEPAWTAPYFNEEVAKFQSDLLFESEALLLGRVTYQGFAAAWPSMTDEEGFADKMNSIPKFVASTTLEKTEWNANLIKGNIVEEISKLKEQPGQNLLIYGSGELIQTLMQHDLIDEYHFMVNPVIVGSGKHLFKTGNDTKALKLIETRTTSSGVVILSYQPEKKE | not soluble |
| MGQSLPLHLLKYPSKFSINIYAAPVSDAREMALGSKDIVFVGSRSAGKVYAVIPDKKNSHGTRVLTIASGLNMPNGVAFHKGALYVAEIGRILRFDNIESNLNNPPEPVVVTTKLPKEKAHGWRFISFGPDDKLYIGIGAPCNVCLMEDPRYATIMRMNTYGQDLEIYARGIRNTVGFDWDPLHHNLWFTDNGRDWLGDNLPPDELNVAPRKGMDFGFPYCYGKSTVDPVYGKIHSCSEFTPAVFEFPAHVAPLGMSFYTGKLFPSNYWGQIFISEHGSWNRSHKIGYQVTTVKIKNNHVTEVKPFISGWLQGEKAWGRPVDTLVMPDGSLLISDDYANVIYRVSYQLEHHHHHH | not soluble |
| MGRAELLEGKMSTQDPSDLWSRSDGEAELLQDLGWYHGNLTRHAAEALLLSNGCDGSYLLRDSNETTGLYSLSVRAKDSVKHFHVEYTGYSFKFGFNEFSSLKDFVKHFANQPLIGSETGTLMVLKHPYPRKVEEPSIYESVRVHTAMQTGRTEDDLVPTAPSLGTKEGYLTKQGGLVKTWKTRWFTLHRNELKYFKDQMSPEPIRILDLTECSAVQFDYSQERVNCFCLVFPFRTFYLCAKTGVEADEWIKILRWKLSQIRKQLNQGEGTIRSRSFIFK | soluble |
| MGRARDAILDALENLTAEELKKFKLQAATHQGSGAAPAGIQAPPQSAAKPGLHFIDQHRAALIARVTNVEWLLDALYGKVLTDEQYQAVRAEPTNPSKMRKLFSFTPAWNWTCKDLLLQALRESQSYLVEDLERS | soluble |
| MGRKKKKVDKPWCWYCNREFDDEKILIQHQKAKHFKCHICHKKLFSGPGLSIHCMQVHKETIDKIPAAVHGRDNIHVEIYGMQGIPSGAYRGAADEEPDEKRSRMDNGPPMPTPMPFPQHFPFPGMPPMPSGPPPPSMAYGMPPMPSGMMPPRGMPGAYPPPRGYPPAPAPGVYMPPPGMPGAYPPPRMPIGHGPPGGPPMPGPPQRSRFDQPDGGDRWGPPMRGVPRTPPYENEHEHQDYQAPDDYNQGGYDDRFREGDRGGPPGGSRFDQVKAELKEEIVEPNNGPPTTSSGAAAASAAAVVASKLGSRTRIVYPDDHSLSLEERRVKMLFEKRSNPYH | soluble |
| MGSCMKWDYGEMEDFSVSASGLFITNEGNFQYSNATLSYYDPATCEVENEVFYRANGFKLGDVAQSMVIRDGIGWIVVNNSHVIFAIDINTFKEVGRITGFTSPRYIHFLSDEKAYVTQIWDYRIFIINPKTYEITGYIECPDMDMESGSTEQMVQYGKYVYVNCWSYQNRILKIDTETDKVVDELTIGIQPTSLVMDKYNKMWTITDGGYEGSPYGYEAPSLYRIDAETFTVEKQFKFKLGDWPSEVQLNGTRDTLYWINNDIWRMPVEADRVPVRPFLEFRDTKYYGLTVNPNNGEVYVADAIDYQQQGIVYRYSPQGKLIDEFYVGIIPGAFCWKLEHHHHHH | not soluble |
| MGSDKIHHHHHHAATYQVKKLMGFRHPTSYYAKSAKSGYLWNKSHTKRLHNLKNYPKTTWYATAKYSMKSVRNSGTYLKVTNGTGKAKGYVWTGYLKKGVNPANPNGTLTDPFGAAMSTYNVDDNLNKQLLNLFPGTIPDEPLQLAADFIFANAGANPDDYTSVIEELVGAENEPSVFRLSSDKRIQKNQNFLSFQRNSLKEELVTKHKKFTSFKGYRIGAYAFPKHDKRYGESMILLLPSN | not soluble |
| MGSDKIHHHHHHACTDDSNDVVATTSEVIEQAEVPFSVVLKAMNSDGNDITTKGEVNGATLFVFDQNNDFFEQINVNKSTILSRRAIDINCPNSNDITVIAWSGINSGNEEISNMSKANIISDLQVSLKENNGIANIPSDLFYGQVTLHKNSSTKSTVSNELQIIRKTSIFQLSTKGLIKYLGSNAGNFEYRIKNTKSSLDYNGNPTGEEVEFAFPASFDEKGNLTTETQAIFPAQNITVELYKDGNLIFSSEKDKNGELFAATPGKRTEITFKYSGEVSANITIADWATVIQHITMN | not soluble |
| MGSDKIHHHHHHACTGLLVGKKASTDGSVMISYAADSHSLYGEMYRWPAATWPKGAMLEVKEWDTGKPLGKIAQVENTYSVVGNMNEHQVAITESTFGGRHELVDTTGIMDYGSLIYIALQRSKSAREAIKVMTDLVKEYGYYSSGETFSIADKNEAWVMEMIGKGPGNKGAVWVAIRIPDDCISAHANQSRIQQIPFDDKENCIYSPDVVSFAREKGYFKGKDADFSFAKAYCPYDFSALRGCEARVWSFFRKYDTTMDQYTDFIKGDPSKEPMPLYVKPNRKLSVQDVQNGMRDHYEGTDLDMTKDAGAGSYKVPYRWRPMTFEVDGQEYTNERAIATQQTGFVIVPQMRNWLPDAIGGILWFAVDDADMAVFTPVYASVTDVPECYRVGNGDLLNFSWTSAFWIHNWVANMAYHKYSFMIQDIRKVQQELENGYQETVPAIDKAAQELYAKDPAETVKFLTWYSTTNSDSATARWKQLGEYLLVKYIDGNVKKEVNGQFKRNPYGQPASPDFPGYDEDYYRSIVKSAGDRLKVK | not soluble |
| MGSDKIHHHHHHADSPDAFVPPTRLTRIAFDRRSAAFGQLDFLLGEIGRRMQERMEVVRLTPQRALDIGCGHGQGLAGLRARFPDAQIAGLDISGVMLAEAGQRDPQRRPGWVGRLLGKRPLFDLVQGDLATLPFAPGSFDLLWSNLALHWHPEPHRVFPEWHRVTRDDGLVMFSLFGPDTLRELRTAFEEVDTATHTLRFVDMHDIGDMLVHGGWSTPVMDMETLTVTYESPEMLLREVQAFGGLRAHPALRRAGLHGRRWHQAVCAALERLRNADGVIPLTFEIVYGHAWKLPPRGAQQVDELGRAVVPLDKIGRARPRR | not soluble |
